This note sets out measurements from PMC5477539.

In the data set the test system is DNA polymerase III core (alpha-epsilon-theta) (Escherichia coli). The experiment in a line: single-molecule optical tweezers; fit of exonucleolysis initiation rate vs protein concentration (two-step model). As to conditions: biotinylated oligonucleotide ligated at one end; Optical tweezers buffer, salt, pH and temperature not given in the material; constant template force (55 pN for k2).

For the substance “primer-template junction of single stretched DNA (8.1 kbp pBACgus11 construct or 38.5 kbp lambda DNA)”, the Kd (usually a measure of binding affinity in units of concentration) amounted to 130 nM.
